One assay deals with human GLP-1 receptor (human, UniProt P43220 24-463). In words: cell-based or functional assay.
Another assay concerns the target T1, human GIP receptor (human, UniProt P48546 22-466).
T1 sequence (looked up): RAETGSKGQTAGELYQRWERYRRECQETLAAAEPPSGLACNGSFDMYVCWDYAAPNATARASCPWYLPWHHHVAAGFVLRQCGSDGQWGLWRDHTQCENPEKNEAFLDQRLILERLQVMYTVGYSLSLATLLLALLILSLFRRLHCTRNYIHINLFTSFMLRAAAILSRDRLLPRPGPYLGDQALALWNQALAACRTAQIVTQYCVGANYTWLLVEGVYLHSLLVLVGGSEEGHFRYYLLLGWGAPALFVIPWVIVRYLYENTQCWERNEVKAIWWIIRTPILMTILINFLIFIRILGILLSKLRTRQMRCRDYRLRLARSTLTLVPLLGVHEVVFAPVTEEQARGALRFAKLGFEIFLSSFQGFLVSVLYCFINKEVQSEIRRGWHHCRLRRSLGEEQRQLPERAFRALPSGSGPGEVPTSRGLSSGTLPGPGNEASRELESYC
The experiment in a line: cell-based or functional assay.

Numbered stars: 1 amine (or outer) side, 2 acyl side, 3 side chain; on linkers, the order of the positions; unused ones are H or OH. Square brackets hold non-standard residues; d marks the D form. Side chains are listed from the residue outwards. * marks the point of attachment. γGlu = O=C(O)[C@H](CCC(=O)[*:2])N[*:1]; Palmitoyl = CCCCCCCCCCCCCCCC(=O)*; Aib = CC(C)(N)C(=O)O

B1: Compound 49 (peptide)
peptide: H-Y[Aib]EGTFTSDYSKYLDEK([γGlu-Palmitoyl])AAKDFIEWLESA-NH2
SMILES: CCCCCCCCCCCCCCCC(=O)N[C@@H](CCC(=O)NCCCC[C@H](NC(=O)[C@H](CCC(=O)O)NC(=O)[C@H](CC(=O)O)NC(=O)[C@H](CC(C)C)NC(=O)[C@H](Cc1ccc(O)cc1)NC(=O)[C@H](CCCCN)NC(=O)[C@H](CO)NC(=O)[C@H](Cc1ccc(O)cc1)NC(=O)[C@H](CC(=O)O)NC(=O)[C@H](CO)NC(=O)[C@@H](NC(=O)[C@H](Cc1ccccc1)NC(=O)[C@@H](NC(=O)CNC(=O)[C@H](CCC(=O)O)NC(=O)C(C)(C)NC(=O)[C@@H](N)Cc1ccc(O)cc1)[C@@H](C)O)[C@@H](C)O)C(=O)N[C@@H](C)C(=O)N[C@@H](C)C(=O)N[C@@H](CCCCN)C(=O)N[C@@H](CC(=O)O)C(=O)N[C@@H](Cc1ccccc1)C(=O)N[C@H](C(=O)N[C@@H](CCC(=O)O)C(=O)N[C@@H](Cc1c[nH]c2ccccc12)C(=O)N[C@@H](CC(C)C)C(=O)N[C@@H](CCC(=O)O)C(=O)N[C@@H](CO)C(=O)N[C@@H](C)C(N)=O)[C@@H](C)CC)C(=O)O
As to B1, in the assay with human GLP-1 receptor, the “EC50, cAMP induction in HEK293 cells expressing human GLP-1 R” value was 0.049 nM. In addition, in the assay with human GIP receptor, the “EC50, cAMP induction in HEK293 cells expressing human GIP R” value stood at 0.092 nM.

B2: Compound 50 (peptide)
peptide: H-Y[Aib]EGTFTSDYSIYLDEK([γGlu-Palmitoyl])AAKDFIEWLESA-NH2
SMILES: CCCCCCCCCCCCCCCC(=O)N[C@@H](CCC(=O)NCCCC[C@H](NC(=O)[C@H](CCC(=O)O)NC(=O)[C@H](CC(=O)O)NC(=O)[C@H](CC(C)C)NC(=O)[C@H](Cc1ccc(O)cc1)NC(=O)[C@@H](NC(=O)[C@H](CO)NC(=O)[C@H](Cc1ccc(O)cc1)NC(=O)[C@H](CC(=O)O)NC(=O)[C@H](CO)NC(=O)[C@@H](NC(=O)[C@H](Cc1ccccc1)NC(=O)[C@@H](NC(=O)CNC(=O)[C@H](CCC(=O)O)NC(=O)C(C)(C)NC(=O)[C@@H](N)Cc1ccc(O)cc1)[C@@H](C)O)[C@@H](C)O)[C@@H](C)CC)C(=O)N[C@@H](C)C(=O)N[C@@H](C)C(=O)N[C@@H](CCCCN)C(=O)N[C@@H](CC(=O)O)C(=O)N[C@@H](Cc1ccccc1)C(=O)N[C@H](C(=O)N[C@@H](CCC(=O)O)C(=O)N[C@@H](Cc1c[nH]c2ccccc12)C(=O)N[C@@H](CC(C)C)C(=O)N[C@@H](CCC(=O)O)C(=O)N[C@@H](CO)C(=O)N[C@@H](C)C(N)=O)[C@@H](C)CC)C(=O)O
For B2, the “EC50, cAMP induction in HEK293 cells expressing human GLP-1 R” value with human GLP-1 receptor is 0.09 nM. Also, the “EC50, cAMP induction in HEK293 cells expressing human GIP R” value with human GIP receptor came to 0.053 nM.

B3: Compound 51 (peptide)
peptide: H-Y[Aib]EGTFTSDYSKYLDSK([γGlu-Palmitoyl])AAHDFVEWLLRA-NH2
SMILES: CCCCCCCCCCCCCCCC(=O)N[C@@H](CCC(=O)NCCCC[C@H](NC(=O)[C@H](CO)NC(=O)[C@H](CC(=O)O)NC(=O)[C@H](CC(C)C)NC(=O)[C@H](Cc1ccc(O)cc1)NC(=O)[C@H](CCCCN)NC(=O)[C@H](CO)NC(=O)[C@H](Cc1ccc(O)cc1)NC(=O)[C@H](CC(=O)O)NC(=O)[C@H](CO)NC(=O)[C@@H](NC(=O)[C@H](Cc1ccccc1)NC(=O)[C@@H](NC(=O)CNC(=O)[C@H](CCC(=O)O)NC(=O)C(C)(C)NC(=O)[C@@H](N)Cc1ccc(O)cc1)[C@@H](C)O)[C@@H](C)O)C(=O)N[C@@H](C)C(=O)N[C@@H](C)C(=O)N[C@@H](Cc1c[nH]cn1)C(=O)N[C@@H](CC(=O)O)C(=O)N[C@@H](Cc1ccccc1)C(=O)N[C@H](C(=O)N[C@@H](CCC(=O)O)C(=O)N[C@@H](Cc1c[nH]c2ccccc12)C(=O)N[C@@H](CC(C)C)C(=O)N[C@@H](CC(C)C)C(=O)N[C@@H](CCCNC(=N)N)C(=O)N[C@@H](C)C(N)=O)C(C)C)C(=O)O
Consider B3, for which, in the assay with human GLP-1 receptor, the “EC50, cAMP induction in HEK293 cells expressing human GLP-1 R” value amounted to 0.11 nM. Besides, the “EC50, cAMP induction in HEK293 cells expressing human GIP R” value with human GIP receptor worked out at 0.24 nM.

B4: Compound 48 (peptide)
peptide: H-Y[Aib]EGTFTSDYSIYLDEK([γGlu-Palmitoyl])AAKDFVEWLESA-NH2
SMILES: CCCCCCCCCCCCCCCC(=O)N[C@@H](CCC(=O)NCCCC[C@H](NC(=O)[C@H](CCC(=O)O)NC(=O)[C@H](CC(=O)O)NC(=O)[C@H](CC(C)C)NC(=O)[C@H](Cc1ccc(O)cc1)NC(=O)[C@@H](NC(=O)[C@H](CO)NC(=O)[C@H](Cc1ccc(O)cc1)NC(=O)[C@H](CC(=O)O)NC(=O)[C@H](CO)NC(=O)[C@@H](NC(=O)[C@H](Cc1ccccc1)NC(=O)[C@@H](NC(=O)CNC(=O)[C@H](CCC(=O)O)NC(=O)C(C)(C)NC(=O)[C@@H](N)Cc1ccc(O)cc1)[C@@H](C)O)[C@@H](C)O)[C@@H](C)CC)C(=O)N[C@@H](C)C(=O)N[C@@H](C)C(=O)N[C@@H](CCCCN)C(=O)N[C@@H](CC(=O)O)C(=O)N[C@@H](Cc1ccccc1)C(=O)N[C@H](C(=O)N[C@@H](CCC(=O)O)C(=O)N[C@@H](Cc1c[nH]c2ccccc12)C(=O)N[C@@H](CC(C)C)C(=O)N[C@@H](CCC(=O)O)C(=O)N[C@@H](CO)C(=O)N[C@@H](C)C(N)=O)C(C)C)C(=O)O
In the case of B4, the “EC50, cAMP induction in HEK293 cells expressing human GLP-1 R” value in the assay with human GLP-1 receptor stood at 0.041 nM. Besides, the “EC50, cAMP induction in HEK293 cells expressing human GIP R” value with human GIP receptor was determined as 0.061 nM.

For the origin of these results see patent US20150299281A1 (ZEALAND PHARMA A S, published 2015).
